The data set concerns the molecule itself. In words: cross-linking.

B1: ME2-Flag catalytic-inactive mutant (CM), stably expressed in MOLM14 cells (natural protein)
chain: not shown
Consider B1, for which the “stoichiometry N” value stood at 2.

For orientation: stoichiometry N means a count of units in the complex or per binding partner.

These data come from article PMC10472834 (Cell metabolism, 2021).
